The values that follow come from US20230149507A1, “TREATMENT OF ALT CANCERS” (INSTITUTO DE MEDICINA MOLECULAR JOÃO LOBO ANTUNES, priority 2019, published 2023).

One series relates to HeLa cells. The series can be described thus: FACS cell cycle analysis of FANCM-depleted HeLa cells with added agents. The class given is cell-based, human. The note with it: HeLa cells depleted for FANCM; 20 μM BIBR 1532 for 7 days.
The target in a further series is T1, FANCM-BTR complex (Homo sapiens, UniProt Q96E14+Q9H9A7).
T1 construct: expressed in transfected cells; host or cells: HEK-293
T1 sequence (Q9H9A7 1-625): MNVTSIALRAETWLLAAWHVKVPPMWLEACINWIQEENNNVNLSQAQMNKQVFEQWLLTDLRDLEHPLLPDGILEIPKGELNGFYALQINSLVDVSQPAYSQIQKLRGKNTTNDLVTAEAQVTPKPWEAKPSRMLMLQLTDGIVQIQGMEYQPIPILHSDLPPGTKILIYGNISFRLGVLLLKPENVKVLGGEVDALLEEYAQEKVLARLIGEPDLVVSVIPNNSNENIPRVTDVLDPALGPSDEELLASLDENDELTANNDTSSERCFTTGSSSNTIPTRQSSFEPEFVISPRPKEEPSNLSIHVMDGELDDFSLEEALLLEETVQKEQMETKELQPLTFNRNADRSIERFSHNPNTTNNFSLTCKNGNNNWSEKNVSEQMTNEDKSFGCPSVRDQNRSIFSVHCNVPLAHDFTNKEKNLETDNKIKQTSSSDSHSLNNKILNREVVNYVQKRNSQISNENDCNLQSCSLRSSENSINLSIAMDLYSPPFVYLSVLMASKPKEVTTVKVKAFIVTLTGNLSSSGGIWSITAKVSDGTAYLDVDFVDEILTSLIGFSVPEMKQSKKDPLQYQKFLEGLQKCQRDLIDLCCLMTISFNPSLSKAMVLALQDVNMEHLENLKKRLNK
T1 sequence (Q96E14 2-147 limits assumed): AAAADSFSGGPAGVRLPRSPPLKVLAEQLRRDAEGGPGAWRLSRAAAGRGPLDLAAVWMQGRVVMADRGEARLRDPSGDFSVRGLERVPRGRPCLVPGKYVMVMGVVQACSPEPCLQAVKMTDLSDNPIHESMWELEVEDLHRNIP
T1 sequence (Q13472 1-1001 partner): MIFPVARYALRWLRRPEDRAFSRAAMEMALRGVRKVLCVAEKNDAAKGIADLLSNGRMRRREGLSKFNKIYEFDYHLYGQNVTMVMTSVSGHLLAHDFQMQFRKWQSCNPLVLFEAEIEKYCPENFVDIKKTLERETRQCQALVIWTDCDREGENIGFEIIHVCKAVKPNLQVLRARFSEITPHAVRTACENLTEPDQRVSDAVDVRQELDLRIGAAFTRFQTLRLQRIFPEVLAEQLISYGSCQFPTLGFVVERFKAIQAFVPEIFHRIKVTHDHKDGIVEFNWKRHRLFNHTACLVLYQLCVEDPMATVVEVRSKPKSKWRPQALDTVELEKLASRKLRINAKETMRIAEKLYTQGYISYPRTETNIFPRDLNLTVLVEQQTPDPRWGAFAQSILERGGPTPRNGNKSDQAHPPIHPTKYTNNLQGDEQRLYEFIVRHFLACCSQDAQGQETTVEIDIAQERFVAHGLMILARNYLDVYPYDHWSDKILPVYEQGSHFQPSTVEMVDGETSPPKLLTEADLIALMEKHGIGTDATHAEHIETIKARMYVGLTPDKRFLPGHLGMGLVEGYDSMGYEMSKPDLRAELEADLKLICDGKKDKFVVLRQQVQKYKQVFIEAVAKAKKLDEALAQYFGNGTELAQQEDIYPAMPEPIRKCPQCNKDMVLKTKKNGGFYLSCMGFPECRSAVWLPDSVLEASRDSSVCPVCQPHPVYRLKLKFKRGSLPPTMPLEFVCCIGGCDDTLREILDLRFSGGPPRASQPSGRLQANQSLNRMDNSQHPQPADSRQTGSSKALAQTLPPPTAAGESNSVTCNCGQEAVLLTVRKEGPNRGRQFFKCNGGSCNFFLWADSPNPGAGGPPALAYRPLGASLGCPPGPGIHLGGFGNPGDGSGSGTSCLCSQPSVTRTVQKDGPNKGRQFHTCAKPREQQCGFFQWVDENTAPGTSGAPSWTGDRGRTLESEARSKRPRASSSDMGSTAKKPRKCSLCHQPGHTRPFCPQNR
The series can be described thus: Flag-FANCM immunoprecipitation of the FANCM-BTR complex with MM2 peptides added to cellular lysates. The note with it: peptide 1-50 μM, lysates of HEK-293 cells expressing Flag-FANCM. The format is binding. An excerpt: FIG. 10. Characterization of the MM2-ER fusion protein. (a) Schematic showing competitive inhibition of FANCM-BTR complex formation by the MM2 peptide. […] (c) Representative mitotic spreads showing sister-chromatid exchanges (SCEs) in U-2 OS cells expressing MM2-ER or FF>AA-ER mutant fusion proteins in the presence or absence of 40HT (left panel). Quantitation of SCEs (right panel). (d) Representative mitotic spreads showing sister-chromatid exchanges (SCEs) in HeLa cells expressing MM2-ER or FF>AA-ER mutant fusion proteins in the presence or absence of 40HT (left panel). Quantitation of SCEs (right panel). SCEs are indicated by black arrows. For c and d, scatterplot bars represent the mean±SEM number of SCEs from 15-30 mitotic spreads, *p<0.05, **p<0.005, Mann-Whitney test. NB: The frequency of double labelled mitoses in MM2-ER+4OHT samples was approximately 10% of that in the controls, likely due to significant cell cycle delays introduced by activation of the MM2-inhibitor. As thus, SCE levels are likely underestimated in this experiment.
For co-IP experiments involved the ER-inducible system, cells were lysed in IP buffer (20 mM Tris-HCl pH 7.5, 100 mM NaCl, 10% (v/v) glycerol, 0.5 mM EDTA, 1 mM DTT) supplemented with 1× mammalian protease inhibitor cocktail (Sigma Aldrich) and 50 U/ml Benzonase (Novagen) for 2 h at 4° C., with or without MM2 peptide variants (Mimotopes). Following lysis, NaCl concentration was increased to 250 mM, then the lysate cleared at 16,000×g for 15 mins. Supernatant was then mixed with 1 μg of α-FANCM (Abcam) or α-ER (Santa Cruz Biotechnology) and 20 μl protein G sepharose (GE Healthcare), or using α-Flag M2 agarose (Sigma Aldrich). Following 3 h of mixing at 4° C., beads were washed 4× with IP buffer, and 1× with 50 mM NH4(CO3)2, 0.5 mM EDTA, then eluted with 500 mM NH4OH (pH 11.0), 0.5 mM EDTA. Samples were then lyophilized and resuspended in 1×LDS loading buffer (Life Technologies) prior to immunoblotting.

The subject of the next series is U-2 OS ALT cells. The series is described as follows: Metaphase-TIFs after FANCM knockdown with siRNA. The class given is cell-based, human. The note with it: compared to the scrambled control; siRNA 30 nM, 72 h. An excerpt:
(a) Representative images of telomere (green) and γ-H2AX (red) colocalizations on metaphase spreads (meta-TIFs) in U-2 OS cells with or without FANCM depletion (left panel). Meta-TIFs are indicated by white arrows. Scale bars are 5 μm. Quantitation of TIFs (right panel). Scatterplot bars represent the mean±SEM. Out of 3 experiments, n≥81 metaphases scored per treatment, **p<0.005, Mann-Whitney test. (b) Native and denatured TRF analysis of U-2 OS cells with or without FANCM depletion. Colored arrows correspond to telomeric DNA species depicted in panel c. (c) Schematic of migration patterns for indicated telomeric species separated by two-dimensional gel electrophoresis (top panel). Two-dimensional TRF analysis of U-2 OS cells with or without FANCM depletion, hybridized under native and denatured conditions to detect the telomeric C-strand and G-strand (left and right panels). Colored arrows correspond to telomeric DNA species depicted in schematic. (d) Representative dot blot and quantitation of C-circle assays of U-2 OS cells with or without FANCM depletion. C-circle levels were normalized to the mean of scrambled control. Error bars represent the mean±SEM from n=3 experiments, *p<0.05, **p<0.005, Student's t-test. […] Out of 3 experiments, n≥150 cells scored per treatment, *p<0.05, **p<0.005, Mann-Whitney test. […]

Protocol for HeLa cells: When indicated, cells were incubated with 1 μM camptothecin (Sigma-Aldrich) for 3 hours, 0.2 mM hydroxyurea (Sigma-Aldrich) for 16 h, 20 μM BIBR 1532 (Merck Millipore) for 7 days, and 10 μM RO-3306 (Selleckchem) for 18 h. […] For fluorescence-activated cell sorting, cells were trypsinized and pelleted by centrifugation at 500 g at 4° C. for 5 min. Cell pellets were either left untreated for viability assays or fixed in 70% ethanol at −20° C. for 30 min and treated with 25 μg/ml RNaseA (Sigma-Aldrich) in 1×PBS at 37° C. for 20 min. Cells were then washed in 1×PBS and stained with 20 μg/ml propidium iodide (Sigma-Aldrich) in 1×PBS at 4° C. for 10 min. Flow cytometry was performed on a BD FACSCalibur or a BD Accuri C6 (BD Biosciences). Data were analyzed using FlowJo software.

As to `C/C(=C\C(=O)Nc1ccccc1C(=O)O)c1ccc2ccccc2c1` [BIBR 1532], the “accumulation in G2/M” value in the series with HeLa cells is “did not accumulated in G2/M”.
As for “MM2 peptide containing the FF>AA mutant: MM2 peptide containing the FF>AA mutant (SEQ ID NO: 30) that does not bind to BTR (EDIFDCSRDLFSVTADLGACSPDSDDEILEHTSD; mutated FANCM peptide) [reference compound]”, the “FANCM-BTR complex formation (TOP3A binding)” value in the series with FANCM-BTR complex is reported as “unable to inhibit complex formation”.
In the case of “MM2 peptide: chemically synthesized peptide (SEQ ID NO: 29) corresponding to the highly conserved 28 amino acids of the MM2 domain (EDIFDCSRDLFSVTFDLGFCSPDSDDEILEHTSD; wildtype FANCM MM2 peptide)”, the “FANCM-BTR complex formation (TOP3A binding)” value with FANCM-BTR complex is listed as “dose-dependent inhibition of FANCM-BTR complex formation”; with FANCM-BTR complex (listed as MM2-WT), “diminishes with increasing concentrations”.
As to “siFANCM1: Silencer Select siRNA FANCM1 (s33619) (SEQ ID NO: 12) (GCUCGUUCUUUGAUUCAGA; listed as RNA, chemistry not given here)”, the “metaphase-TIFs (meta-TIFs)” value in the series with U-2 OS ALT cells was “significant increase in metaphase-TIFs”.
